Experimental data as given in patent US7524668 (ELAN PHARMACEUTICALS, dated 2009).
Non-standard residues stand in square brackets, D forms with d. No end group written: not given here. Sta = CC(C)C[C@H](N)[C@@H](O)CC(=O)O

Legend:
[1] = molecular target: T1, CHO cell expressed recombinant human beta secretase proteolytically cleaved with HIV protease (human, UniProt P56817 61-453); test: affinity chromatography on peptide-coupled resin
T1 construct: N-terminus at V40 after cleavage of the F39-V40 bond; also called HIV-1 protease treated beta secretase; HIV protease treated CHO produced beta secretase
T1 sequence (P56817 other isoform, or with tags, fused parts or gaps limits assumed): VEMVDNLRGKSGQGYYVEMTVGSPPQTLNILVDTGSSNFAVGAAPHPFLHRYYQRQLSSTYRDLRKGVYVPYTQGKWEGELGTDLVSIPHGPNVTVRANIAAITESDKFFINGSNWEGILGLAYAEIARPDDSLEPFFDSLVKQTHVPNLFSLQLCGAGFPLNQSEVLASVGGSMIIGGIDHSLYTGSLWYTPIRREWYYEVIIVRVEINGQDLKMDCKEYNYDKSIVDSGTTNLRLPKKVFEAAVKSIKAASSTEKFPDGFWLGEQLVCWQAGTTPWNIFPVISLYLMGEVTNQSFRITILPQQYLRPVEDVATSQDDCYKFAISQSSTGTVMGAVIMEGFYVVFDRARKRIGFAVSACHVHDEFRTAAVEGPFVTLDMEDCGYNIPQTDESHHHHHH

[2] = molecular target: T2, pET11a-T7.Tag-Gly-Ser-Met-(A-GV...QTDES) E. coli expressed recombinant human BACE (human, UniProt P56817 14-453); test: affinity chromatography on peptide-coupled resin, bound at pH 4.5, eluted at pH 8.5
T2 construct: The construct carries an N-terminal T7 tag; also called pET11a-BACE; beta secretase
T2 sequence (P56817 other isoform, or with tags, fused parts or gaps limits assumed): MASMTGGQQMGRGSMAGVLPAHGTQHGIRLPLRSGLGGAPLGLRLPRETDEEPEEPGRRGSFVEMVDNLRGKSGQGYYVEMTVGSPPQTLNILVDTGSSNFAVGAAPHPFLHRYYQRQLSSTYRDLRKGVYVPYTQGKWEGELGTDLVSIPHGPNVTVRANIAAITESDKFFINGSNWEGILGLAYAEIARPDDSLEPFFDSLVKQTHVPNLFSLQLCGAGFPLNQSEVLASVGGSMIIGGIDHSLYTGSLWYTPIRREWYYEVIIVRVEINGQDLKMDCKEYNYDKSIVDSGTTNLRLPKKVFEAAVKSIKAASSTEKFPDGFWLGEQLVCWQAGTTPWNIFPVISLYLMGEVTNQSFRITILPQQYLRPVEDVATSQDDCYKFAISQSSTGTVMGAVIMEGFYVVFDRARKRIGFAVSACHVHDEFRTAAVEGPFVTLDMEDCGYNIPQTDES

[3] = molecular target: T3, pQE80L-Met-Arg-Gly-Ser-(His)6-Gly-Ser-Ile-Glu-Thr-Asp-(TQH...QTDES) E. coli expressed recombinant human BACE (human, UniProt P56817 22-453); test: as above
T3 construct: N-terminal His6 tag is part of the construct; also called pQE80L-BACE; pQE-80-BACE
T3 sequence (P56817 other isoform, or with tags, fused parts or gaps limits assumed): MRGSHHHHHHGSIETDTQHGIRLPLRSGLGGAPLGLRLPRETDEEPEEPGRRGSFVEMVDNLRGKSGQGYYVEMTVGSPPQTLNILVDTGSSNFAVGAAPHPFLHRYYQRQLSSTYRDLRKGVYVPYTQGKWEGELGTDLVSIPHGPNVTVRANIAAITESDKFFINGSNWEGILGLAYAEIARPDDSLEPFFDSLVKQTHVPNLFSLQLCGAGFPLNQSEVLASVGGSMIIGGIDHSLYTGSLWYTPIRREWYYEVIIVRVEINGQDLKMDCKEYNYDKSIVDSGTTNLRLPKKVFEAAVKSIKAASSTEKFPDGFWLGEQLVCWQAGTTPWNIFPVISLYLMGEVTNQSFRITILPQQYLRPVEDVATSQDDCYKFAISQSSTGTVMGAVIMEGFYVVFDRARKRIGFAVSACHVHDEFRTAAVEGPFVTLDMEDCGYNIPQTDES

[4] = molecular target: T4, pQE70-Met-Arg-Gly-Ser-Phe-Val-Glu-...Thr-Asp-Glu-Ser-Arg-Ser-(His)6 E. coli expressed recombinant human BACE (human, UniProt P56817 57-453); test: affinity chromatography on peptide-coupled resin, bound at acidic pH, eluted at pH 8.5
T4 construct: C-terminal His6 tag is part of the construct; also called pQE70-BACE
T4 sequence (P56817 other isoform, or with tags, fused parts or gaps limits assumed): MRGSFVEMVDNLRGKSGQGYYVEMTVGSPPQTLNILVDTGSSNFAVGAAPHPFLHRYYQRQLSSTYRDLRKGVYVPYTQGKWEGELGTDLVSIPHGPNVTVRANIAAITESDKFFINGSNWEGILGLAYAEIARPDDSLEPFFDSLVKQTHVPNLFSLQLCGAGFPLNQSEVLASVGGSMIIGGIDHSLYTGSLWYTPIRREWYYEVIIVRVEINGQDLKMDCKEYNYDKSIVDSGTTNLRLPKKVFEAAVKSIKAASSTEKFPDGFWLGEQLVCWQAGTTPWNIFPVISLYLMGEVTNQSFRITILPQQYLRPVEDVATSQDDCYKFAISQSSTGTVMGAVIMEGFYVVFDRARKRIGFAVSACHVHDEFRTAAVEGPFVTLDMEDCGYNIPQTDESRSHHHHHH
Experimental: Prior to purification, the pH of the refolded protein was lowered from about 10 to 8.5 with HCl. The solution was loaded onto three 50 ml Q-Sepharose columns (Pharmacia Biotech XK 50). The columns were pre-equilibrated in 0.4 M Urea, 10 mM AMPSO, pH 8.5. After refolded protein was loaded onto the columns, they were washed with 500 ml of 0.4 M Urea, 10 mM TRIS, pH 8.2. The columns were eluted with 180-245 ml of 0.75 M NaCl in 0.4 M Urea 10 mM TRIS buffer, pH 8.2. The eluates were then dialyzed versus 20 mM HEPES, pH 8.0. The samples were then removed from dialysis and dropped into 1 M NaMES, pH 5.7 (0.1 M final concentration). After centrifugation (20 Kxg) the supernatant was dropped into 1 M Na-acetate, 1 M NaMES, pH 5.0 (0.2 M Na-acetate, 0.28 M Na-MES was the final concentration). […] This solution was then applied to a 15 ml affinity column equilibrated at the same pH. The column was washed with 6 column volumes of 20 mM sodium acetate buffer pH 4.5, 150 mM NaCl. BACE was eluted at pH 8.5 using about 50 ml of 0.1 M borate buffer. […] Purified pQE70-BACE was dialyzed into 100 mM NaBorate pH 8.5.

Measured: binding result

SEVN[Sta]VAEFRGGC (also: coupled to Sulfolink resin via Cys) [synthetic peptide Ser-Glu-Val-Asn-Sta-Val-Ala-Glu-Phe-Arg-Gly-Gly-Cys (where Sta=statine)]
binds: all assays above
